B1: Speckle-type POZ protein (Homo sapiens), O43791 (parent)
chain: MSRVPSPPPPAEMSSGPVAESWCYTQIKVVKFSYMWTINNFSFCREEMGEVIKSSTFSSGANDKLKWCLRVNPKGLDEESKDYLSLYLLLVSCPKSEVRAKFKFSILNAKGEETKAMESQRAYRFVQGKDWGFKKFIRRDFLLDEANGLLPDDKLTLFCEVSVVQDSVNISGQNTMNMVKVPECRLADELGGLWENSRFTDCCLCVAGQEFQAHKAILAARSPVFSAMFEHEMEESKKNRVEINDVEPEVFKEMMCFIYTGKAPNLDKMADDLLAAADKYALERLKVMCEDALCSNLSVENAAEILILADLHSADQLKTQAVDFINYHASDVLETSGWKSMVVSHPHLVAEAYRSLASAQCPFLGPPRKRLKQS

Variants of: B1
Details: with dpod1_human POLD1, P28340
MSRVPSPPPPAEMSSGPVAESWCYTQIKVVKFSYMWTINNFSFCREEMGEVIKSSTFSSGANDKLKWCLRVNPKGLDEESKDYLSLYLLLVSCPKSEVRAKCKFSILNAKGEETKAMESQRAYRFVQGKDWGFKKFIRRDFLLDEANGLLPDDKLTLFCEVSVVQDSVNISGQNTMNMVKVPECRLADELGGLWENSRFTDCCLCVAGQEFQAHKAILAARSPVFSAMFEHEMEESKKNRVEINDVEPEVFKEMMCFIYTGKAPNLDKMADDLLAAADKYALERLKVMCEDALCSNLSVENAAEILILADLHSADQLKTQAVDFINYHASDVLETSGWKSMVVSHPHLVAEAYRSLASAQCPFLGPPRKRLKQS [F102C] was tested, and the “effect of a mutation on the interaction” value was “with no effect”.

Variants of: B1
Details: with dpoe1_human POLE
MSRVPSPPPPAEMSSGPVAESWCYTQIKVVKFSYMWTINNFSFCREEMGEVIKSSTFSSGANDKLKWCLRVNPKGLDEESKDYLSLYLLLVSCPKSEVRAKCKFSILNAKGEETKAMESQRAYRFVQGKDWGFKKFIRRDFLLDEANGLLPDDKLTLFCEVSVVQDSVNISGQNTMNMVKVPECRLADELGGLWENSRFTDCCLCVAGQEFQAHKAILAARSPVFSAMFEHEMEESKKNRVEINDVEPEVFKEMMCFIYTGKAPNLDKMADDLLAAADKYALERLKVMCEDALCSNLSVENAAEILILADLHSADQLKTQAVDFINYHASDVLETSGWKSMVVSHPHLVAEAYRSLASAQCPFLGPPRKRLKQS [F102C] was tested, and the “effect of a mutation on the interaction” value was “with no effect”.

Variants of: B1
Details: with ppard_human PPARD
For MSRVPSPPPPAEMSSGPVAESWCYTQIKVVKFSYMWTINNFSFCREEMGEVIKSSTFSSGANDKLKWCLRVNPKGLDEESKDYLSLYLLLVSCPKSEVRAKCKFSILNAKGEETKAMESQRAYRFVQGKDWGFKKFIRRDFLLDEANGLLPDDKLTLFCEVSVVQDSVNISGQNTMNMVKVPECRLADELGGLWENSRFTDCCLCVAGQEFQAHKAILAARSPVFSAMFEHEMEESKKNRVEINDVEPEVFKEMMCFIYTGKAPNLDKMADDLLAAADKYALERLKVMCEDALCSNLSVENAAEILILADLHSADQLKTQAVDFINYHASDVLETSGWKSMVVSHPHLVAEAYRSLASAQCPFLGPPRKRLKQS [F102C], the “effect of a mutation on the interaction” value was “with no effect”.

Variants of: B1
Details: with prdm1_human PRDM1, O75626
Chain of prdm1_human PRDM1, O75626 (O75626 whole entry): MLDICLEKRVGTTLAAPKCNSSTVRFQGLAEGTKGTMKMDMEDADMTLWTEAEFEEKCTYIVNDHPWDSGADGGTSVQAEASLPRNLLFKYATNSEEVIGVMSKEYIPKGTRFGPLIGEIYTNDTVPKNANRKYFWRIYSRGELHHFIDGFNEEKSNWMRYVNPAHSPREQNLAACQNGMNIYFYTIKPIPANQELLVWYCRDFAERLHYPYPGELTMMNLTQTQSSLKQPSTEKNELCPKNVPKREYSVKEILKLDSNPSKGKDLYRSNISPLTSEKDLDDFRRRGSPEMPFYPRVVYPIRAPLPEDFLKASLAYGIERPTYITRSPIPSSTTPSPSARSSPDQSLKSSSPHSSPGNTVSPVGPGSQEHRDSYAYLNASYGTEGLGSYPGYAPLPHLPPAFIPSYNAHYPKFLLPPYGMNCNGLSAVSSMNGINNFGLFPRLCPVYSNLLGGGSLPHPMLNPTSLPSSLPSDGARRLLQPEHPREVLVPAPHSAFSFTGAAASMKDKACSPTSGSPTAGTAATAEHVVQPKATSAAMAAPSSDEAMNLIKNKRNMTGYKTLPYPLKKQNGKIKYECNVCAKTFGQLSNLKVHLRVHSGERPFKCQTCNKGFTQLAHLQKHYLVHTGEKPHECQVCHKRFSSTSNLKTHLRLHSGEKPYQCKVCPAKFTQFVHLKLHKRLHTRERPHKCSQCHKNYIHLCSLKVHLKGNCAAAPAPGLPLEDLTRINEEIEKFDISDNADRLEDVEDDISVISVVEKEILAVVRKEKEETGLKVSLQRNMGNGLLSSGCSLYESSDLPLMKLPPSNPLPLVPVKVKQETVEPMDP
MSRVPSPPPPAEMSSGPVAESWCYTQIKVVKFSYMWTINNFSFCREEMGEVIKSSTFSSGANDKLKWCLRVNPKGLDEESKDYLSLYLLLVSCPKSEVRAKCKFSILNAKGEETKAMESQRAYRFVQGKDWGFKKFIRRDFLLDEANGLLPDDKLTLFCEVSVVQDSVNISGQNTMNMVKVPECRLADELGGLWENSRFTDCCLCVAGQEFQAHKAILAARSPVFSAMFEHEMEESKKNRVEINDVEPEVFKEMMCFIYTGKAPNLDKMADDLLAAADKYALERLKVMCEDALCSNLSVENAAEILILADLHSADQLKTQAVDFINYHASDVLETSGWKSMVVSHPHLVAEAYRSLASAQCPFLGPPRKRLKQS [F102C] was tested, and the “effect of a mutation on the interaction” value was “with no effect”.

Variants of: B1
Details: with prex2_human PREX2, Q70Z35
Chain of prex2_human PREX2, Q70Z35 (Q70Z35 whole entry): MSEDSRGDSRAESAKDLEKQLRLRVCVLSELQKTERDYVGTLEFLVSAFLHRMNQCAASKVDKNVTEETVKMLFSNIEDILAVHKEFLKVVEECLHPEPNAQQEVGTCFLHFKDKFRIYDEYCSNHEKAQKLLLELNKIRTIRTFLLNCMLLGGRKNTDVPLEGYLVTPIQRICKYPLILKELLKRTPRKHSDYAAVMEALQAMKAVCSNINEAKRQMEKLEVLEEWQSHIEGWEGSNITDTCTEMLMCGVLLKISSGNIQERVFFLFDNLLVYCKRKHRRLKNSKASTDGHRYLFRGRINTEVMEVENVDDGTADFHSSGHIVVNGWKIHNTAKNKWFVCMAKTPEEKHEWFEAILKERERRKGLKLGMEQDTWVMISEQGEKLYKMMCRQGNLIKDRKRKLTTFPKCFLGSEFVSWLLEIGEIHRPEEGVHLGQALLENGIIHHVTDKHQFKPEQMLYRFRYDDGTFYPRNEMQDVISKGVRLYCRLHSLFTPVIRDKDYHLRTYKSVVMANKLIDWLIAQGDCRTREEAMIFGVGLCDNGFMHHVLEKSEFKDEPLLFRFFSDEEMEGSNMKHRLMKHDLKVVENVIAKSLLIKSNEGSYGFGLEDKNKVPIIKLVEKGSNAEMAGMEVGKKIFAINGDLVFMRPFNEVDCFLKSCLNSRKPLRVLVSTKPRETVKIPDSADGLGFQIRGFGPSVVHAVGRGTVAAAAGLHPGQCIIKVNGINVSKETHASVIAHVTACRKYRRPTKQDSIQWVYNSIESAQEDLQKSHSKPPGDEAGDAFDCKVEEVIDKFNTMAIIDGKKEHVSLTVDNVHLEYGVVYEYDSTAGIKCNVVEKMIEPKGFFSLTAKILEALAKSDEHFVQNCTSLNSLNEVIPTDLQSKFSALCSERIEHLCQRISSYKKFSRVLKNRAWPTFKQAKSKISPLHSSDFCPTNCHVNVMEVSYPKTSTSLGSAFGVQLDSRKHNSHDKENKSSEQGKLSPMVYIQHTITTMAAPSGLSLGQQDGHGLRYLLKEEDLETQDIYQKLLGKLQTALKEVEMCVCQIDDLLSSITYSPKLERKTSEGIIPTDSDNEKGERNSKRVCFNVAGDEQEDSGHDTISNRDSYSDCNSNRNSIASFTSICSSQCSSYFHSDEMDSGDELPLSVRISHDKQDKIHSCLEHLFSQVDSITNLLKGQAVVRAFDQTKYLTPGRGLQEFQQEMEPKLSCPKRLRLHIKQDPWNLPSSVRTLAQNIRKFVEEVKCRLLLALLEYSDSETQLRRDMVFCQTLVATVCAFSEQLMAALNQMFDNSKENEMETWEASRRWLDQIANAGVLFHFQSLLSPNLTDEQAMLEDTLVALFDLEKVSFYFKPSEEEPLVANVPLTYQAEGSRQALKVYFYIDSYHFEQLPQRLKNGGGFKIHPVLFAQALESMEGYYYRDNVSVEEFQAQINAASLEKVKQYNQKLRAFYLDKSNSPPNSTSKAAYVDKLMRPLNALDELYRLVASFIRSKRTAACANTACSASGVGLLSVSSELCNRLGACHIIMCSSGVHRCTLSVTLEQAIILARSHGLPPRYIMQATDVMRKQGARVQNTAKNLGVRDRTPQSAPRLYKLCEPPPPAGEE
In the case of MSRVPSPPPPAEMSSGPVAESWCYTQIKVVKFSYMWTINNFSFCREEMGEVIKSSTFSSGANDKLKWCLRVNPKGLDEESKDYLSLYLLLVSCPKSEVRAKCKFSILNAKGEETKAMESQRAYRFVQGKDWGFKKFIRRDFLLDEANGLLPDDKLTLFCEVSVVQDSVNISGQNTMNMVKVPECRLADELGGLWENSRFTDCCLCVAGQEFQAHKAILAARSPVFSAMFEHEMEESKKNRVEINDVEPEVFKEMMCFIYTGKAPNLDKMADDLLAAADKYALERLKVMCEDALCSNLSVENAAEILILADLHSADQLKTQAVDFINYHASDVLETSGWKSMVVSHPHLVAEAYRSLASAQCPFLGPPRKRLKQS [F102C], the “effect of a mutation on the interaction” value is reported as “with no effect”.

Variants of: B1
Details: with aapk2_human PRKAA2, P54646
Chain of aapk2_human PRKAA2, P54646 (P54646 whole entry, looked up): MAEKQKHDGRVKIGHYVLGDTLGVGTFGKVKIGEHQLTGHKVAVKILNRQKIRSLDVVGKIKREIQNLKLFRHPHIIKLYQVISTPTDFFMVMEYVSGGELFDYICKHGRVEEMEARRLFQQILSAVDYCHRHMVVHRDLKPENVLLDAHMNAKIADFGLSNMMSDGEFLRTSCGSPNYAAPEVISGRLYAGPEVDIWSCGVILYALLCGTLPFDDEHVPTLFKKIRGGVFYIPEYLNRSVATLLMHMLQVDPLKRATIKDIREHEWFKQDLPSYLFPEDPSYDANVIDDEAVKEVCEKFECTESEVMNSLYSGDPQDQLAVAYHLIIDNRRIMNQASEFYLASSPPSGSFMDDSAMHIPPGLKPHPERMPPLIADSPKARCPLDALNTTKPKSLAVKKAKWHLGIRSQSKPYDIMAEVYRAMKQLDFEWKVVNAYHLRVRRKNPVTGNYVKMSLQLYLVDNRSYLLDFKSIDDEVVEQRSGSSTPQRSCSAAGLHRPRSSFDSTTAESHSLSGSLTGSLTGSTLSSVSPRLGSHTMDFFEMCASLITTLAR
In the case of MSRVPSPPPPAEMSSGPVAESWCYTQIKVVKFSYMWTINNFSFCREEMGEVIKSSTFSSGANDKLKWCLRVNPKGLDEESKDYLSLYLLLVSCPKSEVRAKCKFSILNAKGEETKAMESQRAYRFVQGKDWGFKKFIRRDFLLDEANGLLPDDKLTLFCEVSVVQDSVNISGQNTMNMVKVPECRLADELGGLWENSRFTDCCLCVAGQEFQAHKAILAARSPVFSAMFEHEMEESKKNRVEINDVEPEVFKEMMCFIYTGKAPNLDKMADDLLAAADKYALERLKVMCEDALCSNLSVENAAEILILADLHSADQLKTQAVDFINYHASDVLETSGWKSMVVSHPHLVAEAYRSLASAQCPFLGPPRKRLKQS [F102C], the “effect of a mutation on the interaction” value is reported as “with no effect”.

Variants of: B1
Details: with prss8_human PRSS8, Q16651
Chain of prss8_human PRSS8, Q16651 (Q16651 whole entry, looked up): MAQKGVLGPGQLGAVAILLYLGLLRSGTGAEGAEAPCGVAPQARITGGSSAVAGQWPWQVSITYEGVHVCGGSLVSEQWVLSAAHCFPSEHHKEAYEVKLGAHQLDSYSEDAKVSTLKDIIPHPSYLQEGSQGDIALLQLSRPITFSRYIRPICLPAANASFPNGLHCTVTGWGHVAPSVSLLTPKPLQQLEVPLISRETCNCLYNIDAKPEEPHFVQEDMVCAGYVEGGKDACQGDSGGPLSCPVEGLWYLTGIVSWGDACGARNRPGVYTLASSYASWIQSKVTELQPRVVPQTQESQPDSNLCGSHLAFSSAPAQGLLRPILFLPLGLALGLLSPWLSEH
With MSRVPSPPPPAEMSSGPVAESWCYTQIKVVKFSYMWTINNFSFCREEMGEVIKSSTFSSGANDKLKWCLRVNPKGLDEESKDYLSLYLLLVSCPKSEVRAKCKFSILNAKGEETKAMESQRAYRFVQGKDWGFKKFIRRDFLLDEANGLLPDDKLTLFCEVSVVQDSVNISGQNTMNMVKVPECRLADELGGLWENSRFTDCCLCVAGQEFQAHKAILAARSPVFSAMFEHEMEESKKNRVEINDVEPEVFKEMMCFIYTGKAPNLDKMADDLLAAADKYALERLKVMCEDALCSNLSVENAAEILILADLHSADQLKTQAVDFINYHASDVLETSGWKSMVVSHPHLVAEAYRSLASAQCPFLGPPRKRLKQS [F102C] the “effect of a mutation on the interaction” value was “with no effect”.

Variants of: B1
Details: with tf65_human RELA
MSRVPSPPPPAEMSSGPVAESWCYTQIKVVKFSYMWTINNFSFCREEMGEVIKSSTFSSGANDKLKWCLRVNPKGLDEESKDYLSLYLLLVSCPKSEVRAKCKFSILNAKGEETKAMESQRAYRFVQGKDWGFKKFIRRDFLLDEANGLLPDDKLTLFCEVSVVQDSVNISGQNTMNMVKVPECRLADELGGLWENSRFTDCCLCVAGQEFQAHKAILAARSPVFSAMFEHEMEESKKNRVEINDVEPEVFKEMMCFIYTGKAPNLDKMADDLLAAADKYALERLKVMCEDALCSNLSVENAAEILILADLHSADQLKTQAVDFINYHASDVLETSGWKSMVVSHPHLVAEAYRSLASAQCPFLGPPRKRLKQS [F102C] was tested, and the “effect of a mutation on the interaction” value was “with no effect”.

Variants of: B1
Details: with rictr_human RICTOR
With MSRVPSPPPPAEMSSGPVAESWCYTQIKVVKFSYMWTINNFSFCREEMGEVIKSSTFSSGANDKLKWCLRVNPKGLDEESKDYLSLYLLLVSCPKSEVRAKCKFSILNAKGEETKAMESQRAYRFVQGKDWGFKKFIRRDFLLDEANGLLPDDKLTLFCEVSVVQDSVNISGQNTMNMVKVPECRLADELGGLWENSRFTDCCLCVAGQEFQAHKAILAARSPVFSAMFEHEMEESKKNRVEINDVEPEVFKEMMCFIYTGKAPNLDKMADDLLAAADKYALERLKVMCEDALCSNLSVENAAEILILADLHSADQLKTQAVDFINYHASDVLETSGWKSMVVSHPHLVAEAYRSLASAQCPFLGPPRKRLKQS [F102C] the “effect of a mutation on the interaction” value was “with no effect”.

Variants of: B1
Details: with rnf43_human RNF43, Q68DV7
Chain of rnf43_human RNF43, Q68DV7 (Q68DV7 whole entry): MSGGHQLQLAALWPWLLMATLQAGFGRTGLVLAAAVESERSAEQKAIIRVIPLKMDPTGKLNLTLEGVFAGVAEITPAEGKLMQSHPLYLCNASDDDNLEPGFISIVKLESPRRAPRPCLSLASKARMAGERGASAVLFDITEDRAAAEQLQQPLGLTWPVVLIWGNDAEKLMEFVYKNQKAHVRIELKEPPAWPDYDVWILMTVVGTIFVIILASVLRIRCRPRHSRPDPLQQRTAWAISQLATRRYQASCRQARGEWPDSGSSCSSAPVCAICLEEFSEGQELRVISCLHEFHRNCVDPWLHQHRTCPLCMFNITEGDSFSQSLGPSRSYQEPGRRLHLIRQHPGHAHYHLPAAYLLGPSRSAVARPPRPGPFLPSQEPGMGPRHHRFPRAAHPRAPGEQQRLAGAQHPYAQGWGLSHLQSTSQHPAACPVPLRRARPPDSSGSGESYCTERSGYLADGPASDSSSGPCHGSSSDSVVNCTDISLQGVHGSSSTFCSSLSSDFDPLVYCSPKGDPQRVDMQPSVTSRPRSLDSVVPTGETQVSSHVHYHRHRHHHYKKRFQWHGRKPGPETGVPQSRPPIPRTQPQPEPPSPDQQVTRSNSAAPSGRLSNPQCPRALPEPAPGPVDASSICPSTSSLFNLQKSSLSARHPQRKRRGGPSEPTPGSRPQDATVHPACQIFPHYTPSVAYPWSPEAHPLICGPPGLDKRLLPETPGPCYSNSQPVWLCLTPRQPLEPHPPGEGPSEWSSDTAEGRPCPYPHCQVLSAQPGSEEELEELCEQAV
With MSRVPSPPPPAEMSSGPVAESWCYTQIKVVKFSYMWTINNFSFCREEMGEVIKSSTFSSGANDKLKWCLRVNPKGLDEESKDYLSLYLLLVSCPKSEVRAKCKFSILNAKGEETKAMESQRAYRFVQGKDWGFKKFIRRDFLLDEANGLLPDDKLTLFCEVSVVQDSVNISGQNTMNMVKVPECRLADELGGLWENSRFTDCCLCVAGQEFQAHKAILAARSPVFSAMFEHEMEESKKNRVEINDVEPEVFKEMMCFIYTGKAPNLDKMADDLLAAADKYALERLKVMCEDALCSNLSVENAAEILILADLHSADQLKTQAVDFINYHASDVLETSGWKSMVVSHPHLVAEAYRSLASAQCPFLGPPRKRLKQS [F102C] the “effect of a mutation on the interaction” value was “with no effect”.

Variants of: B1
Details: with ros1_human ROS1, P08922
MSRVPSPPPPAEMSSGPVAESWCYTQIKVVKFSYMWTINNFSFCREEMGEVIKSSTFSSGANDKLKWCLRVNPKGLDEESKDYLSLYLLLVSCPKSEVRAKCKFSILNAKGEETKAMESQRAYRFVQGKDWGFKKFIRRDFLLDEANGLLPDDKLTLFCEVSVVQDSVNISGQNTMNMVKVPECRLADELGGLWENSRFTDCCLCVAGQEFQAHKAILAARSPVFSAMFEHEMEESKKNRVEINDVEPEVFKEMMCFIYTGKAPNLDKMADDLLAAADKYALERLKVMCEDALCSNLSVENAAEILILADLHSADQLKTQAVDFINYHASDVLETSGWKSMVVSHPHLVAEAYRSLASAQCPFLGPPRKRLKQS [F102C] was tested, and the “effect of a mutation on the interaction” value was “with no effect”.

Variants of: B1
Details: with rl11_human RPL11, P62913
With MSRVPSPPPPAEMSSGPVAESWCYTQIKVVKFSYMWTINNFSFCREEMGEVIKSSTFSSGANDKLKWCLRVNPKGLDEESKDYLSLYLLLVSCPKSEVRAKCKFSILNAKGEETKAMESQRAYRFVQGKDWGFKKFIRRDFLLDEANGLLPDDKLTLFCEVSVVQDSVNISGQNTMNMVKVPECRLADELGGLWENSRFTDCCLCVAGQEFQAHKAILAARSPVFSAMFEHEMEESKKNRVEINDVEPEVFKEMMCFIYTGKAPNLDKMADDLLAAADKYALERLKVMCEDALCSNLSVENAAEILILADLHSADQLKTQAVDFINYHASDVLETSGWKSMVVSHPHLVAEAYRSLASAQCPFLGPPRKRLKQS [F102C] the “effect of a mutation on the interaction” value was “with no effect”.

Variants of: B1
Details: with rl5_human RPL5, P46777
With MSRVPSPPPPAEMSSGPVAESWCYTQIKVVKFSYMWTINNFSFCREEMGEVIKSSTFSSGANDKLKWCLRVNPKGLDEESKDYLSLYLLLVSCPKSEVRAKCKFSILNAKGEETKAMESQRAYRFVQGKDWGFKKFIRRDFLLDEANGLLPDDKLTLFCEVSVVQDSVNISGQNTMNMVKVPECRLADELGGLWENSRFTDCCLCVAGQEFQAHKAILAARSPVFSAMFEHEMEESKKNRVEINDVEPEVFKEMMCFIYTGKAPNLDKMADDLLAAADKYALERLKVMCEDALCSNLSVENAAEILILADLHSADQLKTQAVDFINYHASDVLETSGWKSMVVSHPHLVAEAYRSLASAQCPFLGPPRKRLKQS [F102C] the “effect of a mutation on the interaction” value was “with no effect”.

Variants of: B1
Details: with rs15_human RPS15, P62841
For MSRVPSPPPPAEMSSGPVAESWCYTQIKVVKFSYMWTINNFSFCREEMGEVIKSSTFSSGANDKLKWCLRVNPKGLDEESKDYLSLYLLLVSCPKSEVRAKCKFSILNAKGEETKAMESQRAYRFVQGKDWGFKKFIRRDFLLDEANGLLPDDKLTLFCEVSVVQDSVNISGQNTMNMVKVPECRLADELGGLWENSRFTDCCLCVAGQEFQAHKAILAARSPVFSAMFEHEMEESKKNRVEINDVEPEVFKEMMCFIYTGKAPNLDKMADDLLAAADKYALERLKVMCEDALCSNLSVENAAEILILADLHSADQLKTQAVDFINYHASDVLETSGWKSMVVSHPHLVAEAYRSLASAQCPFLGPPRKRLKQS [F102C], the “effect of a mutation on the interaction” value was “with no effect”.

Variants of: B1
Details: with rptor_human RPTOR
MSRVPSPPPPAEMSSGPVAESWCYTQIKVVKFSYMWTINNFSFCREEMGEVIKSSTFSSGANDKLKWCLRVNPKGLDEESKDYLSLYLLLVSCPKSEVRAKCKFSILNAKGEETKAMESQRAYRFVQGKDWGFKKFIRRDFLLDEANGLLPDDKLTLFCEVSVVQDSVNISGQNTMNMVKVPECRLADELGGLWENSRFTDCCLCVAGQEFQAHKAILAARSPVFSAMFEHEMEESKKNRVEINDVEPEVFKEMMCFIYTGKAPNLDKMADDLLAAADKYALERLKVMCEDALCSNLSVENAAEILILADLHSADQLKTQAVDFINYHASDVLETSGWKSMVVSHPHLVAEAYRSLASAQCPFLGPPRKRLKQS [F102C] was tested, and the “effect of a mutation on the interaction” value was “with no effect”.
